Laboratory results reported in paper PMC5000626, “Urinary Dopamine as a Potential Index of the Transport Activity of Multidrug and Toxin Extrusion in the Kidney” (International Journal of Molecular Sciences, 2016).

Test system: NCCc1ccc(O)c(O)c1
Assay: cells, lysate or membranes
Settings: other: [3H]dopamine uptake at 1 min, HEK293 cells expressing hMATE2-K, mean ± S.E., n=3; pH 7.4; 37.0 °C

hMATE2-K (Homo sapiens), sequence (chain, as listed by the source): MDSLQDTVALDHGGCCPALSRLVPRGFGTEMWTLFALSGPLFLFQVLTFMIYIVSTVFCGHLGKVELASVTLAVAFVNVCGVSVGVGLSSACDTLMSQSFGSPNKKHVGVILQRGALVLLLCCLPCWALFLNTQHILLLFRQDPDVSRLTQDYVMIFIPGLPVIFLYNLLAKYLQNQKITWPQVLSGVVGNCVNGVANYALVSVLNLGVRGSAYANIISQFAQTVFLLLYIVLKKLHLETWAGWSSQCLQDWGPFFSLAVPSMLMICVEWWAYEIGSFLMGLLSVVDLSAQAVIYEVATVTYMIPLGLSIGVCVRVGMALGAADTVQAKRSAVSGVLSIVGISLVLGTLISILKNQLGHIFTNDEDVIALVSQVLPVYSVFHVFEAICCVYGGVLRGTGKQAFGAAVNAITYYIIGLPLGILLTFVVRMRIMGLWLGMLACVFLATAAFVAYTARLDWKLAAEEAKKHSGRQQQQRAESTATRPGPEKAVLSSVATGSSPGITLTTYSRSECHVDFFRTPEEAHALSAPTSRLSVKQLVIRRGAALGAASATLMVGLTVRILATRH

hMATE2-K (Homo sapiens) gave a Km of 2480 ± 650 µM.
